From paper PMC7906288
Where two headings read alike, the source gives them in different places.

Key:
Test in all cases: native MS
[1] = molecular target: NISTmAb, recombinant humanized monoclonal IgG1 antibody (not stated | human (humanized antibody))
[2] = molecular target: SILu Lite SigmaMAb universal antibody standard human (MSQC4) (human)
[3] = molecular target: SILu Lite SigmaMAb universal antibody standard human (MSQC4) (human); remark: listed apart in the source
[4] = molecular target: SILu Lite SigmaMAb universal antibody standard human (MSQC4) (human); remark: listed apart in the source

stoichiometry N [1] | stoichiometry N [2] | stoichiometry N [3] | stoichiometry N [4] | Substance
2 |  |  |  | NISTmAb, recombinant humanized monoclonal IgG1 antibody
 | 2 | 2 | 2 | SILu Lite SigmaMAb universal antibody standard human (MSQC4)
